Measurements published in patent US20260234255A1 (Genmab, published 2026).

Tests used:
[1] = target: T1, rhesus monkey (Macaca mulatta) CD30 (rhesus monkey, UniProt P28908 19-595 (human entry)); experiment: flow cytometry, Expi293F cells transfected with rhesus monkey CD30
T1 construct: also called mmCD30
T1 chain: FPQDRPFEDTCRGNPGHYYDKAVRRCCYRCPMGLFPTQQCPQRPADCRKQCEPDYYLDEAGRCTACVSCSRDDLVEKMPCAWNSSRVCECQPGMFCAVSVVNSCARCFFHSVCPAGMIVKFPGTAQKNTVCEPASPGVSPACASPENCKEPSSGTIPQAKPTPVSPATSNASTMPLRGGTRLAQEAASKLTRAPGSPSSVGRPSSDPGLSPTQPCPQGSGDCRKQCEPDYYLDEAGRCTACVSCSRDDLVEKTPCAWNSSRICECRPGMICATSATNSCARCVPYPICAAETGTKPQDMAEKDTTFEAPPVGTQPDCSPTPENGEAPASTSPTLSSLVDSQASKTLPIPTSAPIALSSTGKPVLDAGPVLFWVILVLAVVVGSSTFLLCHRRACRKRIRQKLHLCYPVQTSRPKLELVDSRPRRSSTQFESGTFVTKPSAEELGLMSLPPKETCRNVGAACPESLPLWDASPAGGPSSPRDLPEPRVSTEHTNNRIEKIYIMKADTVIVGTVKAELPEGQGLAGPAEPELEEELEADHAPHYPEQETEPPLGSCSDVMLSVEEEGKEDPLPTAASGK
Description: Cells (3×10⁴ cells/well) were incubated in polystyrene 96-well round-bottom plates (Greiner bio-one, cat. no. 650180) with serial dilutions of antibodies (ranging from 0.005 to 10 μg/mL in 3-fold dilution steps) in 100 μL staining buffer at 4° C. for 30 min. Experiments were performed in technical duplicate. After washing twice in staining buffer, cells were incubated in 50 μL secondary antibody at 4° C. for 30 min. As a secondary antibody, R-PE-conjugated goat-anti-human IgG (Jackson ImmunoResearch, UK; cat. no. 109⁻¹¹⁶-098) diluted 1:400 in staining buffer was used. Cells were washed twice in staining buffer, resuspended in 30 μL staining buffer containing 0.4% EDTA and analyzed on an iQue Screener (Intellicyt Corporation, USA). Binding curves were analyzed using non-linear regression (sigmoidal dose-response with variable slope) using GraphPad Prism V9.0.0 software (GraphPad Software, San Diego, CA, USA).

human CD30 [2] = target: T2, human CD30 (human, UniProt P28908 19-595); experiment: flow cytometry, HDLM-2 cells
T2 construct: also called huCD30; TNFRSF8
T2 sequence: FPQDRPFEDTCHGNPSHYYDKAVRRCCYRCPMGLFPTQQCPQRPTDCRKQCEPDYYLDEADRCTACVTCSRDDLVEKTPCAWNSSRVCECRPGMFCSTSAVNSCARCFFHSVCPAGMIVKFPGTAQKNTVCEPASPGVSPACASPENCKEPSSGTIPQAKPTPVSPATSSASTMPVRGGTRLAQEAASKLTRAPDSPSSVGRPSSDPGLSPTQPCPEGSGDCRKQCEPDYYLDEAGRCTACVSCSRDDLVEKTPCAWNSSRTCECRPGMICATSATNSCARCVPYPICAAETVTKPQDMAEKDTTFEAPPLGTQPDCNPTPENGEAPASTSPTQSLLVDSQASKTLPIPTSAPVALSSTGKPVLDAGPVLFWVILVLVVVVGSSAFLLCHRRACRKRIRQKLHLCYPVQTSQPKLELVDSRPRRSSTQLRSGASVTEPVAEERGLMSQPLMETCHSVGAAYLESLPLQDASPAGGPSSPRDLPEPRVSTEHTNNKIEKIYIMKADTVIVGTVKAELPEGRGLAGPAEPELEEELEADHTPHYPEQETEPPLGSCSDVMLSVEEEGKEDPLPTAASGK
Description: (§1) Binding of CD3×CD30 bispecific antibodies to two CD30-expressing human tumor cell lines SU-DHL-1 (ALCL; ATCC, cat. no. ACC 356) and HDLM-2 (HL; ATCC, cat. no. CRL-2965) was analyzed […] by flow cytometry.
(§2) Cells (3×10⁴ cells/well) were incubated in polystyrene 96-well round-bottom plates (Greiner bio-one, cat. no. 650180) with serial dilutions of antibodies (range 0.0046 to 10 μg/mL in 3-fold dilution steps) in 50 μL staining buffer at 4° C. for 30 min. After washing twice in staining buffer, cells were incubated with 50 μL secondary antibody at 4° C. for 30 min. […] Next, cells were washed twice in staining buffer, resuspended in 100 μL staining buffer supplemented with TO-PRO-3 iodide (Thermo Fisher Scientific; cat. no. T3605; 1:8000 dilution) and analyzed on a FACSCelesta flow cytometer (BD Biosciences, USA). Live cells were gated based on FSC/SSC and absence of TOPRO-3 staining. Binding curves were analyzed by non-linear regression of log-transformed data (sigmoidal dose-response with variable slope, four parameters) using GraphPad Prism V7.02 software (GraphPad Software, San Diego, CA, USA).

human CD30 [3] = target: T2, human CD30; experiment: cell-based or functional assay
human CD30 [4] = target: T2, human CD30; experiment: flow cytometry, SU-DHL-1 cells
Description: as §1, §2

cynomolgus monkey CD3 = target: T3, cynomolgus monkey CD3 (cynomolgus monkey, UniProt Q95LI5 22-198); experiment: flow cytometry, cynomolgus monkey T cells (PBMCs)
T3 construct: CD3 endogenously expressed on T cells within cynomolgus monkey PBMCs
T3 sequence (Q95LI5 22-198): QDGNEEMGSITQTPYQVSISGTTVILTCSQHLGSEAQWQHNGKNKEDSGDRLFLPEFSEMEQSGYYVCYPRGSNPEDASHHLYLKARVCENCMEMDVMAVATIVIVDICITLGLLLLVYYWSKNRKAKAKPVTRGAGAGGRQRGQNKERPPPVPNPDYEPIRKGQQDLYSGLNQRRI
Description: Cynomolgus monkey PBMCs (Tebu-Bio, The Netherlands; cat. no. PBMCMFA-10) or purified human T cells were plated in polystyrene 96-well round-bottom plates. T cells were derived from human donor buffy coats (Sanquin, Amsterdam, The Netherlands) and isolated using the RosetteSep human T cell enrichment cocktail (Stemcell Technologies, France, cat. no. 15061) according to manufacturer's instructions. […] After washing twice in staining buffer, cells were incubated in 50 μL secondary R-PE-conjugated goat-anti-human IgG antibody at 4° C. for 30 min (1:400 dilution). After washing twice in staining buffer, T cells were stained for T-cell markers CD3 (1:100; Miltenyi biotec, clone 10D12, conjugated to APC), CD4 (1:50; eBioscience, clone OKT4, conjugated to APC-Cy7), CD8 (1:100; Biolegend, clone RPA-T8, conjugated to AF700) and T-cell activation markers CD69 (1:50; BD Biosciences, clone AB2439, conjugated to FITC), CD25 (1:50; eBioscience, clone BC96, conjugated to PE-Cy7) and CD279/PD1 (1:50; BD Biosciences, clone AEH12.2H7, conjugated to BV605). Single stained samples with Ultracomp beads (5 μL; Invitrogen, cat. no. 01-2222-42) were used for compensation adjustments of the flow cytometer. After 30 min of incubation at 4° C., cells were washed twice with staining buffer, resuspended in 100 μL staining buffer and analyzed using a FACS Fortessa (BD Biosciences). Data were processed using FlowJo (BD Biosciences).

B1: bsG1-huCD3-FEALxCD30-HRS-3-FEAR (bispecific antibody, human IgG1, kappa, lambda)
heavy 1: not shown
light 1: not shown
heavy 2: QVQLQQSGAELARPGASVKMSCKASGYTFTTYTIHWVRQRPGHDLEWIGYINPSSGYSDYNQNFKGKTTLTADKSSNTAYMQLNSLTSEDSAVYYCARRADYGNYEYTWFAYWGQGTTVTVSSASTKGPSVFPLAPSSKSTSGGTAALGCLVKDYFPEPVTVSWNSGALTSGVHTFPAVLQSSGLYSLSSVVTVPSSSLGTQTYICNVNHKPSNTKVDKRVEPKSCDKTHTCPPCPAPEFEGGPSVFLFPPKPKDTLMISRTPEVTCVVVAVSHEDPEVKFNWYVDGVEVHNAKTKPREEQYNSTYRVVSVLTVLHQDWLNGKEYKCKVSNKALPAPIEKTISKAKGQPREPQVYTLPPSREEMTKNQVSLTCLVKGFYPSDIAVEWESNGQPENNYKTTPPVLDSDGSFFLYSRLTVDKSRWQQGNVFSCSVMHEALHNHYTQKSLSLSPG
light 2: DIVMTQSPKFMSTSVGDRVTVTCKASQNVGTNVAWFQQKPGQSPKVLIYSASYRYSGVPDRFTGSGSGTDFTLTISNVQSEDLAEYFCQQYHTYPLTFGGGTKLEINRTVAAPSVFIFPPSDEQLKSGTASVVCLLNNFYPREAKVQWKVDNALQSGNSQESVTEQDSKDSTYSLSSTLTLSKADYEKHKVYACEVTHQGLSSPVTKSFNRGEC
notes: Bispecific IgG1 made by controlled Fab-arm exchange
EC50 (read off the curve) [1]: ~0.3 µg/mL | EC50 (read off the curve) (human CD30 [2]): ~0.1 µg/mL | T-cell mediated cytotoxicity of Karpas-299 cells, IC50 average (human CD30 [3]): 0.068 µg/mL | T-cell mediated cytotoxicity of Karpas-299 cells, maximum lysis average (human CD30 [3]): 47.5% | EC50 (read off the curve) (human CD30 [4]): ~0.2 µg/mL

B2: bsG1-huCD3-FEALxCD30-T105-FEAR (bispecific antibody, human IgG1, kappa, lambda)
heavy 1: not shown
light 1: not shown
heavy 2: not shown
light 2: DIVMTQSQKFMSTSVGDRVSVTCKASQNVNTNVAWYQQKPGQSPEALIYSASYRYSGVPDRFTGSGSGTDFTLTISNVQSEDLAEYFCQQYNSYPLTFGSGTKLEIKRTVAAPSVFIFPPSDEQLKSGTASVVCLLNNFYPREAKVQWKVDNALQSGNSQESVTEQDSKDSTYSLSSTLTLSKADYEKHKVYACEVTHQGLSSPVTKSFNRGEC
notes: Bispecific IgG1 made by controlled Fab-arm exchange; also called bsIgG1-huCD3-FEALxCD30-T105-FEAR
EC50 (read off the curve) [1]: ~0.3 µg/mL | EC50 (read off the curve) (human CD30 [2]): ~0.4 µg/mL | T-cell mediated cytotoxicity of Karpas-299 cells, IC50 average (human CD30 [3]): 0.042 µg/mL | T-cell mediated cytotoxicity of Karpas-299 cells, maximum lysis average (human CD30 [3]): 52.6% | EC50 (read off the curve) (human CD30 [4]): ~0.3 µg/mL

B3: bsG1-huCD3-FEALxb12-FEAR (bispecific antibody)
heavy 1: not shown
light 1: not shown
heavy 2: QVQLVQSGAEVKKPGASVKVSCQASGYRFSNFVIHWVRQAPGQRFEWMGWINPYNGNKEFSAKFQDRVTFTADTSANTAYMELRSLRSADTAVYYCARVGPYSWDDSPQDNYYMDVWGKGTTVIVSSASTKGPSVFPLAPSSKSTSGGTAALGCLVKDYFPEPVTVSWNSGALTSGVHTFPAVLQSSGLYSLSSVVTVPSSSLGTQTYICNVNHKPSNTKVDKRVEPKSCDKTHTCPPCPAPEFEGGPSVFLFPPKPKDTLMISRTPEVTCVVVAVSHEDPEVKFNWYVDGVEVHNAKTKPREEQYNSTYRVVSVLTVLHQDWLNGKEYKCKVSNKALPAPIEKTISKAKGQPREPQVYTLPPSREEMTKNQVSLTCLVKGFYPSDIAVEWESNGQPENNYKTTPPVLDSDGSFFLYSRLTVDKSRWQQGNVFSCSVMHEALHNHYTQKSLSLSPG
light 2: EIVLTQSPGTLSLSPGERATFSCRSSHSIRSRRVAWYQHKPGQAPRLVIHGVSNRASGISDRFSGSGSGTDFTLTITRVEPEDFALYYCQVYGASSYTFGQGTKLERKRTVAAPSVFIFPPSDEQLKSGTASVVCLLNNFYPREAKVQWKVDNALQSGNSQESVTEQDSKDSTYSLSSTLTLSKADYEKHKVYACEVTHQGLSSPVTKSFNRGEC
notes: Monovalent CD3 control; The b12 arm is HIV-1 gp120 specific
EC50 (read off the curve) (cynomolgus monkey CD3): ~0.5 µg/mL
